Entries after “also recorded” stand apart in the source; their conditions may differ.

Test [1] concerns eosinophils. Description: Example 1: recombinant IL-5 and IL-5 DNA on eosinophil numbers in the blood of pigs. Conditions: recombinant IL-5 100 μg IM on 1 or 2 consecutive days, up to 12 days after treatment. The test is classed as in vivo. On the procedure:
This trial compared the effects of recombinant porcine IL-5 protein and DNA delivered porcine IL-5 on eosinophil numbers in the blood of pigs.
6 pigs per treatment, approximately 7-8 weeks of age (weaners), mean weight of approx. 15 kg.
(§1) The experiment was conducted using medicated feed Barastoc EziWean 150 then Bunge Grolean CREEP ad libitum in an experimental environment (PC2 containment facilities).
Recombinant IL-5 was expressed in E. coli and purified using a GST tag system. (See, for example, Smith, D. B and Johnson, K. S. (1988), Gene, 67:31-40). IL-5 was cleaved from the GST tag, purified and tested in bioassays to confirm activity.
IL-5 cDNA (including the signal sequence) was cloned into the pCI DNA vector. DNA was purified using the Qiagen Giga Prep kit (Qiagen Inc. USA).
Total white cells and eosinophils were counted from slides.
Pre-bleed for haematology and dose with all treatments (1, 2, 3, 4, 5 as shown above)
8 hrs later, bleed for haematology

Test [2] relates to eosinophils. Description: Example 3: mode of administration of IL-5 (protein or DNA) on eosinophils. Format: in vivo, pigs. Particulars: six times over 2 weeks. On the procedure: This trial compared the delivery of IL-5 as recombinant protein or by DNA using different routes of administration. Each treatment was administered six times over 2 weeks (Days 0, 1, 3, 6, 8, 10).
6 pigs/treatment group. Blood haematology measured.
as §1
Blood total and differential counts were performed using a CellDyn 3700 haematology machine.

Test [3] in a line: Example 5: repeat growth performance trial of IL-5 with normal, reduced and no antibiotics. The test is classed as in vivo, pigs. How it is done:
This trial repeats the evaluation of IL-5 to improve growth performance and/or immunity of pigs by comparing the growth rate and health of male and female weaner pigs (from 28 days old: Week 0 of the trial) through the weaner (Weeks 0-6), grower (Weeks 6-13) and finisher (Weeks 13-19) stages to slaughter (Week 19), which were administered with recombinant porcine cytokine IL-5, and saline was used as a control, with and without standard weaner medicated water and feed, and reduced antibiotics, in a commercial piggery environment.
This trial (weaner/grower/finisher trial) was designed to investigate the effect of providing IL-5 and the controls (saline) from weaning to slaughter with normal, reduced and no antibiotics in water supply. The experiment evaluates the capacity of IL-5 for replacing antibiotics under commercial pig rearing conditions and to determine the effect of continuous administration of the cytokines throughout the life of the pig on performance and carcass characteristics.
The experiment was undertaken in a commercial environment where the pigs were weaned at 28 days of age. All injections were 1 ml. There were 16 pigs per treatment, 8 males and 8 females per treatment. The overall weight of pigs in each treatment was similar at the start of the experiment.
−means no antibiotic supplements in water or feed throughout trial.
0.5 means single antibiotics used throughout trial at normal dose
+ means normal antibiotic regime used throughout trial IL-5+ means IL-5 administered during Weaner/Grower/Finisher periods.
IL-5+p means IL-5 administered during Weaner period only.
A. Saline injection, 1 ml IM neck muscle.
B. 100 μg IL-5 injection, 1 ml IM neck muscle.
Weaner stage: 2 injections per week,
Grower and finisher stage 1 injection per week.
Pigs were weaned and weighted at the start of the experiment (D0, W0) and weekly until the end of the weaner period (W6), at the end of the grower (W13) and finisher (W19) stages and once during the grower (W9) and finisher (W16) stages. Blood and sera samples were collected at the start (before treatments) and end of the weaner, grower and finisher periods. Blood and sera were taken prior to treatment injection. Haematology (totals and differentials) was performed.
At the start of the trial, the mean weight and the variance of all groups was equalised to reduce confounding influence of starting weight. Thus, the positive effects on growth were due to treatment effects.

Test [4] has as its system eosinophils. As to the kind of experiment: Example 11: IL-5 and IL-3 on eosinophil production. Format: in vivo, pigs. An excerpt:
The aim of this example was to determine if the effects of IL-3 and IL-5 act synergistically to increase eosinophil levels and antibody production.
As IL-3 stimulates the proliferation of pre-active B cells prior to the effects of IL-5, it was believed that administration of both IL-3 and IL-5 would have a greater impact on eosinophil production than the administration of either cytokine alone. An experiment was undertaken using pigs raised under clean PC2 conditions with raised floors. There were 5 treatments with 6 pigs per treatment. Pigs were 5-6 weeks of age. The animals were injected intramuscularly on days 0, 3, 7 and 10 of the experiment with either recombinant cytokines or saline. The treatments include IL-5 and IL-3 alone and given either together at the same time at different sites or to the same animal but with IL-3 being administered one week before IL-5. The treatments were as follows:
Group 3—100 μg IL-3+100 μg IL-5 (separate sites)
The pigs were bled 4 times per week for the first 2 weeks and once per week for the following 2 weeks and haematology measured using a CellDyn machine. Sera were collected also each week and tested for antibody levels.

[5] abbreviates: 2nd trial, normal medication, weaner period.
Where [6] appears, read: normal antibiotics, IL-5 during weaner, grower, finisher periods.

B1: interleukin 5 (protein, UniProt Q9MYM5 22-134, looked up)
Interleukin-5: VENTMNRLVAETLTLLSIHRTLLIGDGNLMISTPVHTNHQLCIEEVFQGIDTLKNQTARGDAVEKLFQNLSLIKEYIDRQKKNCGGERWRVTQFLDYLQVFLGVINTEWTMES
notes: recombinant porcine IL-5 protein expressed in E. coli; + / − = with / without antibiotic medicated feed and water, +p = weaner period only
With B1, the “percentage eosinophils of white blood cells (WBC)” value in the test on eosinophils [1] is “transient (several days)”. In addition, the “percentage eosinophils of white blood cells (WBC)” value in the test with eosinophils [1] (listed as recombinant IL-5) is reported as “sustained increase in eosinophil numbers in blood over several days; also recorded: two doses being more effective than one dose; also recorded: more effective than DNA in increasing eosinophil numbers”. In addition, in the test with eosinophils [2] (100 μg rec.IL-5 IM hind leg, listed as Recombinant IL-5), the “circulating eosinophil numbers (percentage of WBC)” value was “elevated circulating eosinophil numbers”. Moreover, in the test on eosinophils [2] (100 μg rec.IL-5 IM hind leg, listed as recombinant IL-5), the “circulating eosinophil numbers (percentage of WBC)” value was “increase in the duration and level of eosinophils in blood”. Moreover, in the test on eosinophils [2] (100 μg rec.IL-5 intranasal spray), the “circulating eosinophil numbers (percentage of WBC)” value is recorded as “slight increases on eosinophil numbers compared to the DNA control but not statistically significant”. In test [3] (setting [5]), the “increase in average weights over medicated saline control” value stood at 7% and the “increase in weight gain over medicated saline control” value is 11%. Further, the “total group weights, weaner period” value in test [3] (no, reduced or normal antibiotics) is “beneficial effects on total weights, especially with reduced or no antibiotic supplements”. Besides, the “average weight increases, weaner-only vs continuous IL-5” value in test [3] (normal antibiotics) is “no significant differences between groups given IL-5 during the weaner or continuously throughout the weaner, grower and finisher periods”. Moreover, in test [3] (setting [6]), the “change of final average weight vs saline control” value is about −1.5% and the “decrease of final average weight vs saline control” value was 1.3 kg. Besides, the average weights entry in test [3] (normal antibiotics, W6 to W13) is “consistently higher average weights than the saline control (with normal antibiotics) from the end of the weaner period (W6) to the end of the grower period (W13)”. For the same molecule, in test [3] (normal antibiotics, Week 13), the “average weight higher than IL-5+p” value came to 1.3 kg and the “average weight higher than saline control” value was determined as 4.7 kg. For the same molecule, in test [3] (normal antibiotics, Week 19), the “average weight lower than IL-5+p” value came out at 2 kg and the “average weight lower than saline control” value was 1.3 kg. In addition, the “average weight gains during the Weaner period” value in test [3] (vs respective saline controls, with or without antibiotic supplements) is “consistently higher average weight gains during the Weaner period compared to the respective saline controls with or without antibiotic supplements in water or feed”. In addition, in test [3] (vs saline controls without antibiotic supplements), the “average weight gains during the Weaner period” value is “consistently higher average weight gains during the Weaner period”. The “eosinophil percentage of WBC relative to the original value” in the test with eosinophils [4] (after 4 injections) is on record as “approximately 10 times”. In addition, the “eosinophils as a percent of white blood cells” value in the test on eosinophils [4] (single cytokine 100 μg IM days 0, 3, 7, 10) is “significant increase in eosinophil levels; also recorded: dramatically increased circulating eosinophil cells”.
